From US20230151111A1 (AKESO BIOPHARMA, published 2023) come the findings set out here.

For one assay, the target named is human PD-1-mFc-biotin (human, UniProt Q15116 25-170, limits assumed, biotin label, site not stated). Nature of the assay: competitive ELISA, competitor coated PD-L1-mFc; antibody 5 ug/mL diluted 1:3. Here is the method:
After incubation, the microplate was blocked with a PBS solution containing 1% BSA at 37° C. for 2 h. After blocking, the plate was washed three times and dried. The antibody was serially diluted to 7 concentrations in a gradient ratio of 1:3 on a dilution plate with 10 μg/mL as the starting concentration, and a blank control was set. […] Then the mixture after reaction was added to the coated microplate, and the microplate was incubated for at 37° C. for 30 min. After incubation, the plate was washed three times with PBST and dried. SA-HRP (KPL, 14-30-00) working solution was added, and the plate was incubated at 37° C. for 30 min. After incubation, the plate was washed four times and patted dry. Then TMB (Neogen, 308177) was added in the dark for chromogenesis for 5 min, and a stop solution was added to terminate chromogenic reaction. Then the microplate was put into a microplate reader immediately, and the OD value of each well in the microplate was read at 450 nm. The data were analyzed and processed by SoftMax Pro 6.2.1.
Background: In an ELISA, binding on a coated surface is turned into a signal by an enzyme label.

A further assay deals with T1, PD-1-mFc (human, UniProt Q15116 25-170, limits assumed).
T1 construct: also called human PD-1-mFc
Nature of the assay: BLI (Fortebio), antibody on AHC sensor, PD-1-mFc 0.6-50 nM, 37 C. The method, then: The sample dilution buffer was PBST, 0.1% BSA, pH 7.4. The antibody was immobilized on an AHC sensor at a concentration of 5 μg/mL with an immobilization height of about 0.4 nm. The sensor was equilibrated in a buffer for 60 s, and the binding of the immobilized antibody on the sensor to the antigen PD-1-mFc at concentrations of 0.6-50 nM (three-fold dilution) was determined in 120 s. The protein was dissociated in the buffer for 180 s. The detection temperature was 37° C., the detection frequency was 0.3 Hz, and the sample plate shaking rate was 1000 rpm. The data were analyzed by 1:1 model fitting to obtain affinity constants.

A further assay deals with T2, human NT5E(1-552)-his (human, UniProt P21589 27-552).
T2 construct: The entry starts at Met 1
T2 sequence: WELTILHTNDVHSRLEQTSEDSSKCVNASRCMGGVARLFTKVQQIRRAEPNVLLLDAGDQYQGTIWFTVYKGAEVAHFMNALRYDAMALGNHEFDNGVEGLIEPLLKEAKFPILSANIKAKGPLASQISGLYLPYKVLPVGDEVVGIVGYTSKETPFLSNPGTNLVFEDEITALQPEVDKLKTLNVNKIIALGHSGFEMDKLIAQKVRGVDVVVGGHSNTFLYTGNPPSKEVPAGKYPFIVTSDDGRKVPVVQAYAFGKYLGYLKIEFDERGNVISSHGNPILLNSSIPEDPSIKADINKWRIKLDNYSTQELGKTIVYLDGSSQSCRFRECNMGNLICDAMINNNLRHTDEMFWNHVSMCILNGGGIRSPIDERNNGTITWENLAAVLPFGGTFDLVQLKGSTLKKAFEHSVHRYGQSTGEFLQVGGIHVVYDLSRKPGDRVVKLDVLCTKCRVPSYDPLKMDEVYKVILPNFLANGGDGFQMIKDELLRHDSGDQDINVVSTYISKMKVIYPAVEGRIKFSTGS
In words: BLI (Fortebio), antibody on Protein A sensor, NT5E(1-552)-his 3.125-200 nM, 37 C. Here is the method:
The sample dilution buffer was PBST, pH 7.4. The antibody was immobilized on a Protein A sensor at a concentration of 5 μg/mL with the immobilization time of about 15 s. […] The protein was dissociated in the buffer for 600 s. The sensor was refreshed with 10 mM Gly solution, pH 1.5. The detection temperature was 37° C., the detection frequency was 0.6 Hz, and the sample plate shaking rate was 1000 rpm. The data were analyzed by 1:1 model fitting to obtain affinity constants.
On the technique in general: BLI is a label-free optical method that tracks binding on a fibre tip over time.

T1 sequence (Q15116 other isoform, or with tags, fused parts or gaps limits assumed): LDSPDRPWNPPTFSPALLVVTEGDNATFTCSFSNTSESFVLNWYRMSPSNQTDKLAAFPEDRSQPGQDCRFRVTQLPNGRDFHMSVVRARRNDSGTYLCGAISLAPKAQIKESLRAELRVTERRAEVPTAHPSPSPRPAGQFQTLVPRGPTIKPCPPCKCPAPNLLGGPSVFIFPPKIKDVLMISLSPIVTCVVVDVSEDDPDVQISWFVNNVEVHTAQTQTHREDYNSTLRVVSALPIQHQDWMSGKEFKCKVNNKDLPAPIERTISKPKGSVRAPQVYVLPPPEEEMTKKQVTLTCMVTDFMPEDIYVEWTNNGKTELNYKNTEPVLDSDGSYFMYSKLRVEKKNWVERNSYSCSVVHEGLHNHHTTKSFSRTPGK
Chain of human PD-1-mFc-biotin (Q15116 other isoform, or with tags, fused parts or gaps limits assumed): as above

B1: P1D7V01 (bispecific antibody, human IgG1, kappa)
heavy: not shown
light: DIQMTQSPSSMSASVGDRVTFTCRASQDINTYLSWFQQKPGKSPKTLIYRANRLVSGVPSRFSGSGSGQDYTLTISSLQPEDMATYYCLQYDEFPLTFGAGTKLELKRTVAAPSVFIFPPSDEQLKSGTASVVCLLNNFYPREAKVQWKVDNALQSGNSQESVTEQDSKDSTYSLSSTLTLSKADYEKHKVYACEVTHQGLSSPVTKSFNRGEC
notes: Morrison form IgG-scFv
In the assay with human PD-1-mFc-biotin, B1 yielded an OD450 of 0.05 OD. Further, in the assay with PD-1-mFc, the Kd – broadly, the equilibrium constant for the complex coming apart – came to 0.176 nM; the koff (commonly the first-order rate constant of dissociation) is 7.37e-05 s⁻¹; the kon (in general, a measure of how fast the partners come together) amounted to 419000 M⁻¹ s⁻¹. In the assay with human NT5E(1-552)-his, this molecule came in with a Kd of 0.229 nM, a koff of 4.13e-05 s⁻¹ and a kon of 181000 M⁻¹ s⁻¹.
